molecular target: HLA-A*02:01 (Homo sapiens, UniProt P04439, D140Y/D185E/D98H/E176V/E277Q/G131W/G231S/I119V/I121R/I166T/I218V/L300P/L318F/N151K/N90K/P208A/P217A/Q86G/Q94H/R138H/R169H/T345S); assay: MHC binding assay (UV-ligand exchange, ELISA of exchange yield); conditions: binding to HLA-A*02:01, UV-ligand exchange
How it was run: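 ELISA of β2m retained on streptavidin-captured, 100-fold diluted complexes (HRP anti-β2m, TMB, 450 nm) gives the yield. Complexes come from UV-triggered exchange of a photocleavable placeholder peptide for the candidate, which must bind to stop complex dissociation.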

Substance | Peptide exchange (MHC class I binding score, peptide exchange yield)
390 (ALFMKQIYL; listed as Homo sapiens) [compound 390] | “+++” (≥50 = +++)
391 (YVYPQRLNFV; listed as Homo sapiens) [compound 391] | “+++” (≥50 = +++)
393 (GLLDTQTSQVLTA; listed as Homo sapiens) [compound 393] | “++” (≥20% = ++)
394 (LLAVIGGLVYL; listed as Homo sapiens) [compound 394] | “+++” (≥50 = +++)
395 (ALALGGIAVV; listed as Homo sapiens) [compound 395] | “++++” (≥75% = ++++)
397 (YLFGERLLEC; listed as Homo sapiens) [compound 397] | “+++” (≥50 = +++)
398 (KLLEEDGTIITL; listed as Homo sapiens) [compound 398] | “++” (≥20% = ++)
399 (YLFEPLYHV; listed as Homo sapiens) [compound 399] | “+++” (≥50 = +++)
400 (SLLTEQDLWTV; listed as Homo sapiens) [compound 400] | “++” (≥20% = ++)
401 (ILLDDTGLAYI; listed as Homo sapiens) [compound 401] | “+++” (≥50 = +++)
403 (KLYDRILRV; listed as Homo sapiens) [compound 403] | “++” (≥20% = ++)
405 (ALYDVFLEV; listed as Homo sapiens) [compound 405] | “++” (≥20% = ++)
408 (VLDDSIYLV; listed as Homo sapiens) [compound 408] | “++” (≥20% = ++)
409 (LLDAMNYHL; listed as Homo sapiens) [compound 409] | “++” (≥20% = ++)
412 (YLDDLNEGVYI; listed as Homo sapiens) [compound 412] | “++” (≥20% = ++)
428 (KLGHTDILVGV; listed as Homo sapiens) [compound 428] | “++” (≥20% = ++)
429 (GLVNDLARV; listed as Homo sapiens) [compound 429] | “++” (≥20% = ++)
434 (KVSNSGITRV; listed as Homo sapiens) [compound 434] | “++” (≥20% = ++)

Results, then the substance that gave them:

Peptide exchange (MHC class I binding score, peptide exchange yield) | Substance
“++” (≥20% = ++) | 392 (ALLHPQGFEV; listed as Homo sapiens) [compound 392]
“+++” (≥50 = +++) | 396 (ALLPDLPAL; listed as Homo sapiens) [compound 396]
“++” (≥20% = ++) | 402 (VLFSGALLGL; listed as Homo sapiens) [compound 402]
“+++” (≥50 = +++) | 407 (YLMDLINFL; listed as Homo sapiens) [compound 407]
“+++” (≥50 = +++) | 426 (RLADKSVLV; listed as Homo sapiens) [compound 426]
“+++” (≥50 = +++) | 427 (ALLPLSPYL; listed as Homo sapiens) [compound 427]
“+++” (≥50 = +++) | 430 (HLYSSIEHLTT; listed as Homo sapiens) [compound 430]
“++” (≥20% = ++) | 431 (SLVNVVPKL; listed as Homo sapiens) [compound 431]
“++” (≥20% = ++) | 432 (TLIEESAKV; listed as Homo sapiens) [compound 432]
“+++” (≥50 = +++) | 433 (AMLNEPWAV; listed as Homo sapiens) [compound 433]
